± gives the uncertainty stated by the source.
Test: self-splicing fitness, log relative to wild type (ln ratio); higher = more splicing; Tetrahymena group I intron in knt gene, E. coli kanamycin selection, DiMSum; sequences stand for … in CUCUCU…GGAGGGAAAAGUUAUCAGGCAUGCACCUGGUAGCUAGUCUUUAAACCAAUAGAUUGCAUCGGUUUAAAAGGCAAGACCGUCAAAUUGCGGGAAAGGGGUCAACAGCCGUUCAGUACCAAGUCUCAGGGGAAACUUUGAGAUGGCCUUGCAAAGGGUAUGGUAAUAAGCUGACGGACAUGGUCCUAACCACGCAGCCAAGUCCUAAGUCAACAGAUCUUCUGUUGAUAUGGAUGCAGUUCACAGACUAAAUGUCGGUCGGGGAAGAUGUAUUCUUCUCAUAAGAUAUAGUCGGACCUCUCCUUAAUGGGAGCUAGCGGAUGAAGUGAUGCAACACUGGAGCCGCUGGGAACUAAUUUGUAUGCGAAAGUAUAUUGAUUAGUUUUGGAGUACUCGUGGUCG
In short: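 Library with all eight P1ex-region intron nucleotides randomised, intron inside the knt kanamycin-resistance gene on pET-22b(+), in E. coli BL21(DE3). Cells grew overnight at 37°C or 30°C on LB agar with or without 25 μg/mL kanamycin (plus 100 μg/mL carbenicillin, 50 μM IPTG, 0.2% rhamnose), in six replicate transformations. Pooled colonies were amplicon-sequenced on Illumina HiSeq 2500. DiMSum fitness is the error-weighted combination of wild-type-normalised replicate fold changes, kanamycin versus none.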

| Sequence | self-splicing fitness (ln) (30 °C) | self-splicing fitness (ln) (37 °C) |
| --- | --- | --- |
| GAUGAGCAAUAUUACGAAUC | -3.19 ± 0.41 | -1.89 ± 0.29 |
| UGCGAGCAAUAUUACGGAUA | -2.36 ± 0.27 | -2.08 ± 0.36 |
| CCCAAGCAAUAUUACGAUCC | – | -2.85 ± 0.35 |
| AUACAGCAAUAUUACGAUGG | -3.04 ± 0.18 | -2.35 ± 0.23 |
| AUAGAGCAAUAUUACGGCAG | -2.15 ± 0.19 | -1.37 ± 0.16 |
| AUUGAGCAAUAUUACGCGGU | -2.19 ± 0.19 | – |
| CGUAAGCAAUAUUACGUGGC | -4.85 ± 0.36 | -2.39 ± 0.15 |
| AGCGAGCAAUAUUACGGUAG | – | -1.73 ± 0.22 |
| UGCAAGCAAUAUUACGUAGG | -3.31 ± 0.21 | -0.277 ± 0.14 |
| GGAGAGCAAUAUUACGAUGC | -2.8 ± 0.33 | -0.975 ± 0.22 |
| AUGAAGCAAUAUUACGACAA | 0.158 ± 0.11 | 0.0912 ± 0.12 |
| AUUGAGCAAUAUUACGCGUC | -3.26 ± 0.19 | -1.73 ± 0.2 |
| UAAUAGCAAUAUUACGCCUG | -0.203 ± 0.13 | -0.254 ± 0.16 |
| GCACAGCAAUAUUACGUAUU | -1 ± 0.047 | -0.335 ± 0.057 |
| UAAUAGCAAUAUUACGCCAU | -2.36 ± 0.22 | -1.55 ± 0.23 |
| UGCCAGCAAUAUUACGCUCC | -2.88 ± 0.12 | -1.15 ± 0.14 |
| GAGAAGCAAUAUUACGGCCA | -0.417 ± 0.16 | -0.286 ± 0.17 |
| ACGGAGCAAUAUUACGCGGU | -2.86 ± 0.25 | -1.03 ± 0.31 |
| UCCUAGCAAUAUUACGCAUG | -2.52 ± 0.28 | – |
| AGUCAGCAAUAUUACGCAAC | -1.65 ± 0.18 | -1.22 ± 0.21 |
| UUUAAGCAAUAUUACGUUUG | -2.96 ± 0.19 | -1.42 ± 0.13 |
| AACCAGCAAUAUUACGGCAG | -1.02 ± 0.058 | -0.17 ± 0.08 |
| UUCCAGCAAUAUUACGGCCC | -2.34 ± 0.38 | – |
| UCCUAGCAAUAUUACGACUU | -3.74 ± 0.46 | -2.74 ± 0.3 |
| UAGUAGCAAUAUUACGUUGG | -3.52 ± 0.22 | -2.69 ± 0.16 |

| Sequence | self-splicing fitness (ln) (30 °C) | self-splicing fitness (ln) (37 °C) |
| --- | --- | --- |
| UUUAAGCAAUAUUACGGGUG | -1.2 ± 0.13 | -0.234 ± 0.12 |
| UCACAGCAAUAUUACGAGAG | -3.55 ± 0.16 | -2.63 ± 0.19 |
| CCCGAGCAAUAUUACGGGAU | -3.31 ± 0.23 | -2.08 ± 0.21 |
| GUUUAGCAAUAUUACGCACA | -0.867 ± 0.12 | -0.0205 ± 0.14 |
| AAAAAGCAAUAUUACGUCCA | -0.18 ± 0.076 | 0.113 ± 0.11 |
| GCCCAGCAAUAUUACGUAGC | -0.413 ± 0.07 | -0.216 ± 0.079 |
| UUCCAGCAAUAUUACGAAUU | -3.98 ± 0.18 | -2.05 ± 0.14 |
| CUUUAGCAAUAUUACGCUGC | -3.39 ± 0.38 | 0.317 ± 0.36 |
| CCGGAGCAAUAUUACGACUU | -2.23 ± 0.24 | -1.86 ± 0.48 |
| UGAAAGCAAUAUUACGUGAG | -0.356 ± 0.06 | -0.158 ± 0.084 |
| UCGCAGCAAUAUUACGAUCG | -0.735 ± 0.092 | -0.359 ± 0.12 |
| AACUAGCAAUAUUACGCUCA | -0.21 ± 0.1 | 0.239 ± 0.14 |
| GUCAAGCAAUAUUACGAGCA | -1 ± 0.35 | -2.29 ± 0.28 |
| UAUCAGCAAUAUUACGGGUC | -2.27 ± 0.12 | -1.3 ± 0.12 |
| UUGAAGCAAUAUUACGCUCC | -4.04 ± 0.29 | -3.02 ± 0.31 |
| AACAAGCAAUAUUACGGUAC | -3.04 ± 0.16 | -1.99 ± 0.18 |
| AGUAAGCAAUAUUACGCAGU | -4.13 ± 0.17 | -2.98 ± 0.19 |
| AAAGAGCAAUAUUACGGCUA | -1.28 ± 0.11 | -1.13 ± 0.13 |
| AACCAGCAAUAUUACGUAAC | -2.5 ± 0.094 | -1.15 ± 0.11 |
| ACGUAGCAAUAUUACGUCUU | -3.76 ± 0.16 | -1.92 ± 0.15 |
| CUUAAGCAAUAUUACGUAGC | -3.71 ± 0.23 | – |
| UGAUAGCAAUAUUACGGACG | -0.432 ± 0.1 | -0.181 ± 0.15 |
| CGAUAGCAAUAUUACGCAUG | -1.79 ± 0.07 | -0.761 ± 0.069 |
| UCCAAGCAAUAUUACGGCAA | -0.817 ± 0.095 | -0.0878 ± 0.095 |
| UCUAAGCAAUAUUACGUGAG | -1.32 ± 0.074 | 0.269 ± 0.096 |

| Sequence | self-splicing fitness (ln) (30 °C) | self-splicing fitness (ln) (37 °C) |
| --- | --- | --- |
| UAUUAGCAAUAUUACGAUCU | -0.883 ± 0.12 | 0.167 ± 0.17 |
| GUUAAGCAAUAUUACGAAUC | -1.8 ± 0.29 | -0.464 ± 0.17 |
| GCGUAGCAAUAUUACGAGGC | – | -1.53 ± 0.39 |
| AGUAAGCAAUAUUACGACGA | -1.15 ± 0.073 | -0.782 ± 0.079 |
| GUGAAGCAAUAUUACGAAGG | -1.91 ± 0.14 | -0.854 ± 0.17 |
| ACCGAGCAAUAUUACGUGGG | -2.62 ± 0.18 | -2.87 ± 0.2 |
| CGUAAGCAAUAUUACGACCC | -2.71 ± 0.38 | -2.23 ± 0.23 |
| GCCGAGCAAUAUUACGGUCG | -3.63 ± 0.21 | – |
| AGGGAGCAAUAUUACGCAGG | – | -0.965 ± 0.24 |
| UACGAGCAAUAUUACGGCGC | -2.53 ± 0.29 | -2.4 ± 0.46 |
| UAGCAGCAAUAUUACGCAAG | -3.04 ± 0.23 | -1.76 ± 0.21 |
| UAGAAGCAAUAUUACGGGUG | -0.989 ± 0.057 | -0.365 ± 0.078 |
| UAAUAGCAAUAUUACGAACC | -3.22 ± 0.49 | -2.27 ± 0.39 |
| CUGCAGCAAUAUUACGAUUC | – | -2.05 ± 0.2 |
| GUAUAGCAAUAUUACGCAGG | -3.15 ± 0.45 | -3.36 ± 0.47 |
| UCUGAGCAAUAUUACGCACG | -3.08 ± 0.33 | – |
| UAUGAGCAAUAUUACGUCGC | -4.2 ± 0.39 | -2.45 ± 0.39 |
| CUCAAGCAAUAUUACGCGAU | -2.3 ± 0.11 | -0.996 ± 0.11 |
| GAUCAGCAAUAUUACGCUCG | 0.0547 ± 0.089 | -0.0564 ± 0.12 |
| GCUUAGCAAUAUUACGUACC | -0.204 ± 0.2 | 1.1 ± 0.21 |
| GAAAAGCAAUAUUACGACCU | -0.497 ± 0.13 | -1.42 ± 0.12 |
| UGCCAGCAAUAUUACGAUAG | -2.17 ± 0.12 | -1.09 ± 0.12 |
| GGCGAGCAAUAUUACGAACG | -1.57 ± 0.078 | 0.152 ± 0.091 |
| ACCUAGCAAUAUUACGUGGG | -3.54 ± 0.17 | -3.4 ± 0.24 |
| AGUAAGCAAUAUUACGAGGA | -2.06 ± 0.33 | -2.55 ± 0.49 |

| Sequence | self-splicing fitness (ln) (30 °C) | self-splicing fitness (ln) (37 °C) |
| --- | --- | --- |
| GUGUAGCAAUAUUACGUAGU | -2.99 ± 0.18 | -1.37 ± 0.17 |
| CUGCAGCAAUAUUACGUAGC | -2.66 ± 0.15 | -1.95 ± 0.18 |
| AAAAAGCAAUAUUACGAAAA | -2.26 ± 0.17 | -0.664 ± 0.14 |
| GCGAAGCAAUAUUACGAAUG | -1.95 ± 0.15 | -0.756 ± 0.17 |
| UUGCAGCAAUAUUACGGACC | -2.34 ± 0.27 | -2 ± 0.26 |
| AGCAAGCAAUAUUACGGCGC | -0.695 ± 0.095 | 0.164 ± 0.16 |
| GGUUAGCAAUAUUACGGUUU | -0.608 ± 0.086 | -0.0158 ± 0.11 |
| CGGCAGCAAUAUUACGGACG | -2.73 ± 0.21 | -2.42 ± 0.28 |
| AUGGAGCAAUAUUACGUGCC | -2.59 ± 0.25 | -2.25 ± 0.45 |
| ACAUAGCAAUAUUACGCCAA | – | -2.32 ± 0.28 |
| AGUGAGCAAUAUUACGAACA | -1.77 ± 0.18 | -0.734 ± 0.15 |
| UAACAGCAAUAUUACGCCAG | -2.03 ± 0.12 | -1.42 ± 0.18 |
| CAAGAGCAAUAUUACGCCAU | -3.2 ± 0.23 | -2.02 ± 0.28 |
| AGAUAGCAAUAUUACGUUUU | -2.35 ± 0.09 | -1.68 ± 0.1 |
| ACCAAGCAAUAUUACGAGCG | -0.886 ± 0.062 | -1.31 ± 0.081 |
| CAGAAGCAAUAUUACGUGUG | -3.01 ± 0.074 | -2.19 ± 0.082 |
| UAGAAGCAAUAUUACGUAAU | -3.43 ± 0.22 | -1.39 ± 0.18 |
| GUGCAGCAAUAUUACGCCGG | -2.21 ± 0.41 | – |
| CUAUAGCAAUAUUACGGGCC | -1.54 ± 0.36 | – |
| AGAAAGCAAUAUUACGUCCG | -0.86 ± 0.096 | 0.226 ± 0.14 |
| CUGUAGCAAUAUUACGGUCU | -3.53 ± 0.14 | -2.96 ± 0.21 |
| UAAAAGCAAUAUUACGUUCU | -1.87 ± 0.14 | -1.13 ± 0.14 |
| GGAAAGCAAUAUUACGGAGG | -3.5 ± 0.24 | -2.31 ± 0.21 |
| CUAGAGCAAUAUUACGUCUU | -3.52 ± 0.18 | -2.27 ± 0.22 |

— the supplement of paper PMC7877785
